These results are taken from US20150086592A1, “COMPOSITIONS OF VACCINES AND ADJUVANTS AND METHODS FOR THE TREATMENT OF URINARY TRACT INFECTIONS” (Sequoia Sciences, Inc, priority 2013, published 2015).

Data set [1] concerns the target FimH (Escherichia coli, UniProt P08191, P197R/T222H). Kind of data set: biochemical. The method, then: (§1) The biological activity of the FimCH drug substance (for example, from Example 3) is determined by an in vitro mannose binding assay. The FimH protein is a bacterial adhesin utilized by E. coli to bind mannose residues on glycosylated proteins. During urinary tract infections, the FimH adhesin binds mannosylated uroplakin proteins on bladder epithelial cells, which promotes the internalization of bound E. coli. The binding of FimH to mannosylated uroplakin is essential for E. coli to cause urinary tract infections. To monitor the mannose-binding activity of FimH in vitro, FimH binding to the enzyme horseradish peroxidase (HRP) is observed. HRP is a glycosylated protein containing mannose residues, and has previously been used to study mammalian mannose-binding receptors. Complexes of HRP and the lectin ConA, which binds α-D-mannosyl and α-D-glucosyl groups, have also been generated and studied.
(§2) HRP is then added, excess HRP is rinsed away, and the activity of bound HRP is detected.

The target in data set [2] is FimH (Escherichia coli, UniProt P08191). Kind of data set: biochemical. The following applies: concentration at which 50% inhibition of HRP binding to FimH is observed, inhibitor added in the HRP binding step. The procedure:
as §1, §2

A short description of data set [3]: Storage stability of FimCH. In kind it is physicochemical. The following applies: stored at −20° C., 0.3 mg/mL in 20 mM MES pH 5.9 or 20 mM trisodium citrate, pH 5.4. The procedure: For the HIC column used Butyl Sepharose 4FF (GE Healthcare 17-0980-01) in XK26 column. Buffer C: 20 mM MES/550 mM Ammonium Sulfate, pH 5.9; 8 ml/min for XK26/10 except loading, pre-equilibrate the column with 3 CV of Buffer A (as above), equilibrate the column with 6 CV of Buffer C, load Pooled FimCH sample at 5 ml/min XK26/10 column, wash the column with 6 CV of Buffer C, elute the column with a linear 4 CV gradient from 0-100% Buffer A with fraction collection. FimCH is formulated in the concentration of 0.3 mg/mL in 20 mM MES pH 5.9 or 20 mM trisodium citrate, pH 5.4. It is then aseptically filtered through a 0.2 μm sterile filter. FimCH is stable and can be stored at −20° C. for about at least 2 years.

In data set [4] the target is T1, horseradish peroxidase (HRP) (UniProt P00433 31-338).
T1 sequence: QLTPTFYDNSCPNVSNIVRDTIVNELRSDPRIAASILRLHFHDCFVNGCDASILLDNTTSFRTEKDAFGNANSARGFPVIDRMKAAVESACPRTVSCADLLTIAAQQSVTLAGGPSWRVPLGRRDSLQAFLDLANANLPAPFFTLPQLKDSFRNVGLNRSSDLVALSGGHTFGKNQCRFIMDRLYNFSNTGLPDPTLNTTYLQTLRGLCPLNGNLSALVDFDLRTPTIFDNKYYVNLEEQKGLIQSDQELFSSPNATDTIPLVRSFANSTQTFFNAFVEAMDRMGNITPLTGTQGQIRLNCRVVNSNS
Kind of data set: in vitro potency assay; inferred from the lack of HRP signal with the Q133K FimH-FimC complex.

As a reminder, the IC50 is the midpoint of a concentration-inhibition curve. High values mean weaker potency in that assay, low ones greater potency in that assay.

“And” between values parts separate entries of the source, which are not always exact repeats. Equal values may be shown once.

Chain of FimH (Escherichia coli, UniProt P08191, P197R/T222H) (P08191 22-300 P197R/T222H, one chain of several): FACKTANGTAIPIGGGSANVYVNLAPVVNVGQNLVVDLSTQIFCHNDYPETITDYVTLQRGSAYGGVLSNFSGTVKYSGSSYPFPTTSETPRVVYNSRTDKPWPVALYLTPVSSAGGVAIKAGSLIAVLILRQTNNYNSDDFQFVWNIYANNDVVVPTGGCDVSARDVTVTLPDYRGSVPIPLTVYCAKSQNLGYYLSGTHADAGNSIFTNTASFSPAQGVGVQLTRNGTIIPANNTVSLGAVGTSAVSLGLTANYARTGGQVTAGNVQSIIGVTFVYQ
Chain of FimH (Escherichia coli, UniProt P08191) (P08191 22-300 P197R/T222H, one chain of several): as above

For `CO[C@H]1O[C@H](CO)[C@@H](O)[C@H](O)[C@@H]1O` [MDMP, methyl-α-D-mannopyranoside], the “fold higher 50% inhibition concentration than UFMP” value in data set [1] (MDMP versus UFMP) is “approximately 100 fold”. Further, in data set [2], the IC50 is ~5.15 µM and ~5.1 µM.
In the case of “FimCH: non-covalent complex of FimC and FimH recombinant proteins, approximately 51,700 Daltons”, in data set [1] (captured by anti-FimH antisera on ELISA plate), the “HRP binding (mannose-binding activity)” value was “dose-dependent”. Besides, in data set [3], the “time stable on storage” value was “at least 2 years”.

B1: FimC (other)
chain: GVALGATRVIYPAGQKQVQLAVTNNDENSTYLIQSWVENADGVKDGRFIVTPPLFAMKGKKENTLRILDATNNQLPQDRESLFWMNVKAIPSMDKSKLTENTLQLAIISRIKLYYRPAKLALPPDQAAEKLRFRRSANSLTLINPTPYYLTVTELNAGTRVLENALVPPMGESAVKLPSDAGSNITYRTINDYGALTPKMTGVME
notes: also called FimC protein
With B1, the binding result in data set [4] is reported as “no binding”.
